From the domain aggregation screens of Martell et al. (2025)

assay: soluble fraction after stress (log2 fold change); higher = more stays soluble; pooled small domains, quantitative proteomics; conditions: stress: 50 degC
Outline: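 The measure of aggregation propensity here is the base-two logarithm of the fold change in the soluble amount of each protein after stress. A higher value means more of that protein stays in solution. Stress was applied at 50°C to pooled libraries of small protein domains, read out by high-throughput quantitative proteomics.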

Sequence	soluble fraction (log2)
HMAVLFFVKRGERILGPTRLADLFQHAASGRLRANDLVGESPKGPWLPARQLDELEDAWASSRDATEAAAA	0.251
HMTKKSLFNQYLDDQKRLDIVTLQKAELVDLHKLADELNIDQYNQLKKNELIFKILQSNPSE	-0.135
HMNLDYKQFQVFNNIETLNTFTNLLSDNKIDFEVENNSKIFDPSFANNDFEKEYIVKIHPNDFEKVY	0.064
HMLKPQQTQRIYAMAARLGVLESGNKNDMLHTIVYRLTQKESIRSLNENEYKTVVSELAERLKL	-0.97
HMASVAKHIRRLRTERHMTQGDLAEKLFVTRQTVSAWETGKAQPDLETLERIAVVLGVEVTELIYGAP	-0.0295
HMLTRYNVNYYYNGEILQRRKVAEGSAAERITYLSGSLEVTDWYTEADLLRKYDFTEPVTGDLNLYAFARI	-1.05
HMSPDLNEVEEKVFRALNGVESMHVNKLGIELNLPVSELFFTLLELEMKNVVKALPGGMYKL	-1.95
HMSTANISIEQAKEIALNHANLTSNQVIFSRTELDYDNGIQKYEVEFYYNNREYSYEINANTGDILGYEQ	-0.148
HMQENFYMILESEERRVLDVLVADQPESVATFLKLVSPFPNYKIILEHINEKALDFYEETVI	-0.303
HMDSTSEILKVIQNIVKKEDPYHPLSDDKISNLLNDLDYQISRRTVAKYRDILTIPSSSKRRKL	-0.432
HMRTPLTGREEQVATLIGRGMTNSEIAESLSVDESTVKTHIGSILRKVHLRDRLQVALWFHGLPIE	-0.495
HMKEGGGYGQLRLKEAAIQHAFDLQNALQFIAERGYQAHENTTLKEAANALNLKPIELLELLKSSQ	0.281
HMLDKIRTYIDNSFTGVNETKKVKELKDELFENLKEKYNDQIQDGKTEQEAYNSVISGIGDLSELIESVK	0.553
HMNPGAYQVKAGEGLIGLSRRYNVPVDVLASVNNLNTTSSLRVGQTITIPTAAQVNRITQQAQ	0.287
HMIAGHLQIKNDYYYMVLSYTDSDGKRKQPWIPTGLPMKGNKKRAEKMLIETRQTYVPPVSSG	-3.27
HMTSRWEIGYNVAKKYYDEHGNLDVERAVYDNFELKKWLNTQRYKNSAGTLAEKYKIKLDELGMNWER	0.0505
HMLNENNHGEWSIRMSNGLVVRLGRDELNRSLRRSIMAYAGLAPNYRSSIEYIDARYLGGVALKTF	-0.091
HMSNFGALLRMRRLEAGLSYRGLAEQSGLARATLVNLEQGLTKPSPLTMRRLASVKALRLTEL	-2.26
HMGDIFTAEDAKERIDYSGVDGIMLARGIFGNPWLIRDIREYLEYGKILHPVTQLDRVNMAIEHTRKT	0.0388

Sequence	soluble fraction (log2)
HMAGTDLSERESEIAMLLLKGYPYKLIASRLYISESTVKSHVQNIYGKLGIHSRTELIEQFSAS	-0.558
HMKMLPAEVLTHPAVVALIERGAPTGSITPEEVRQASEDAAVEPRHLKALLAHLSALGISVQIP	-0.217
HMKTDLQIQQDVMAELKWEPKVNAAHIGVEVKHGVVTLSGHVDSFAEKWNAEQAAKRVAGVKFIAIELDV	-1.67
HMTTKEEAAYQAIRSAIIDGELKPGQSVTIRDLASRFDLGRTPITDAMKHLALDGWLETTTGVGTRV	-0.106
HMIFSIIPGQIRLTKMEIADGYLVLYGFTPSKEIYNLHLNPALKSIFTSSETSFIPVSGGLKFMSTNKL	-1.78
HMSSLDTLTARETQILAEMAQGKNNAAIAAAVSVSERAVEKHTNSIFAKLGLSEEKDVNRRVMAVLLFLGR	-3.28
HMYVTGETIRHLRTQRRMTQEQLAETLGVTGKAVSKWETGRGFPDMSLLEPLARALRISVPELLSGE	-0.614
HMAKIATTVYEQIRTAILNGELSNSERLVEEDLAVSMGISRTPVREALRRLAAEGLVDVSPNRGARVAE	-0.293
HMQILPAFLPENPELRARLANHSLEELTEILKQYKTLHNSTDVDTVKRAIRAIEIEEYYAVHPV	-0.777
HMLLTHEEQIVKRGWQAPVGPFAILDSRAEAMHGDLEMLRGDREAAEQHFRRAWQIIGPIVEQ	-0.0656
HMKSAIKQNILLYLSNKGVTSYEFYKISGVTRGILQQSNGISEDNIAKFLAYAPDVNIEWLLTGKGDMLKH	-1.32
HMLEYIEPRTAVQIHGIKAKPELNGKRGMVMGYAPERMRYRVRIDVGEGTGGKESEEVYLKPENVIAVK	0.0778
HMDTSAHEVLSAIRSIIEDEDKRHPLSDEAITSRLSQQGYDIARRTVAKYRERLGLPVARLRRE	-0.0213
HMDYHTIQTGDKGDEVLRLQQALAEYGYYEGDLDGRFGQQTRRAVERFQYSHGLTADGIAGRNTLSVLYD	-0.101
HMKTMTTIRKGSRGDTVATLQRKLNLIADGIFGPITDEAVRDFQKSHGLAVDGIVGPKTWAALGVGS	0.0423
HMAAQDLIVKTDASQVEARVLEISPDAVRYKRFSNPDGPTYVLPVAEIRYIRYANGEVEYYA	-0.0166
HMERLSNQVYAILKEMIADYRFNPGARINVEQIAKEVGASRTPVWEAVHRLVQEGLLENIPNRGVFML	-1.41
HMVDSLTIGRRIRQLRTERGMTLEELAAAVGRAPSQLSMIENGRREPKLTLLQAIARALGSTLDALLE	-0.116
HMNKPTFNIFNNRLTFPFKGDITIYSLDGKRVFSAYNESSVNLSFLNRGSYISEFNNSRSVLIL	-1.39
